Tests used:
HeLa Tet3G cells [1] = assay: Cell proliferation assays: rescue of the proliferation defect induced by respiratory chain inhibitors (nuclei counting); assay type: cell-based, human; settings: for rescue of piericidin induced proliferation defect by supplementation: HeLa Tet3G Luciferase cells, compound added to medium, 3 days
Procedure: Five hundred HeLa Tet3G NDI1, Luciferase, LbNOX or mitoLbNOX cells were seeded in 200 μl of DMEM (DMEM (US Biological, D9800), 3.7 g/L NaHCO3, 10% dialyzed FBS (Life Technologies, 26400-044)) per well in a black 96-well plate with clear bottom (Corning, 3904). Twenty four hours after seeding, media was exchanged to DMEM without pyruvate (DMEM (US Biological, D9802), 15.9 mg/L phenol red, 3.7 g/L NaHCO3, 10% dialyzed FBS (Life Technologies, 26400-044))±10 μg/ml chloramphenicol±30 ng/ml ethidium bromide±1 mM pyruvate±300 ng/ml doxycycline. After 0, 2, 3, 4, 5 and 6 days, media was aspirated and cells were fixed by adding 100 μl of 4% paraformaldehyde in PBS and incubating at room temperature for at least 30 min. Paraformaldehyde solution was aspirated and cells were stained with 200 μl of 1 μg/ml Hoechst 33345 in PBS. Plates were covered with sealing aluminum foil and stored at 4° C. before counting cells in each well with Molecular Dynamics IMAGEXPRESS® Ultra (see “Nuclei counting using Molecular Devices IMAGEXPRESS® Ultra,” below).
One thousand HeLa Tet3G NDI1, Luciferase, LbNOX or mitoLbNOX cells were seeded in 200 μl of DMEM (DMEM (US Biological, D9800), 3.7 g/L NaHCO3, 10% dialyzed FBS (Life Technologies, 26400-044)) per well in a black 96-well plate with clear bottom (Corning, 3904). Twenty four hours after seeding, 10 μl of 6 μg/ml doxycycline (300 ng/ml final concentration) or water was added to each well. Twenty four hours after addition of doxycycline, media was exchanged to DMEM without pyruvate (DMEM (US Biological, D9802), 15.9 mg/L phenol red, 3.7 g/L NaHCO3, 10% dialyzed FBS (Life Technologies, 26400-044)), ±1 μM piericidin, ±1 μM antimycin, ±1 mM pyruvate and ±300 ng/ml doxycycline. After 0, 1, 2, 3 and 4 days, media was aspirated and cells were fixed by adding 100 μl of 4% paraformaldehyde in PBS and incubating at room temperature for at least 30 min. Paraformaldehyde solution was aspirated and cells were stained with 200 μl of 1 μg/ml Hoechst 33345. Plates were covered with sealing aluminum foil and stored at 4° C. before counting cells in each well with Molecular Dynamics IMAGEXPRESS® Ultra (see “Nuclei counting using Molecular Devices IMAGEXPRESS® Ultra,” below).
Two thousand HeLa Tet3G Luciferase cells were seeded in 200 μl of DMEM (DMEM (US Biological, D9800), 3.7 g/L NaHCO3, 10% dialyzed FBS (Life Technologies, 26400-044)) per well in a black 96-well plate with clear bottom (Corning, 3904). Twenty four hours after seeding, media was exchanged to DMEM without pyruvate (DMEM (US Biological, D9802), 15.9 mg/L phenol red, 3.7 g/L NaHCO3, 10% dialyzed FBS (Life Technologies, 26400-044))±1 μM piericidin, ±indicated concentrations of pyruvate, lactate, malate, oxaloacetate, nicotinamide mononucleotide ([…]) or PJ34. After 3 days, media was aspirated and cells were fixed by adding 100 μl of 4% paraformaldehyde in PBS and incubating at room temperature for at least 30 min. Paraformaldehyde solution was aspirated and cells were stained with 200 μl of 1 μg/ml Hoechst 33345. Plates were covered with sealing aluminum foil and stored at 4° C. before counting cells in each well with Molecular Dynamics IMAGEXPRESS® Ultra (see “Nuclei counting using Molecular Devices IMAGEXPRESS® Ultra,” below).
Images of 96-well plates with fixed cells stained with Hoechst 33345 were collected using Molecular Devices IMAGEXPRESS® Micro XLS. Four images were taken to cover the whole well. Images were analyzed and nuclei number per well was counted using CellProfiler 2.0 image analysis software (Carpenter, et al., Genome Biol., 7:R100, 2006; and Kamentsky, et al., Bioinformatics, 27:1179, 2011). […]

HeLa Tet3G cells [2] = assay: Glucose concentration-dependent cell survival; assay type: cell-based, human; settings: 1 μM piericidin, 24 hours
Procedure: Images of 96-well plates with fixed cells stained with Hoechst 33345 were collected using Molecular Devices IMAGEXPRESS® Micro XLS. Four images were taken to cover the whole well. Images were analyzed and nuclei number per well was counted using CellProfiler 2.0 image analysis software (Carpenter, et al., Genome Biol., 7:R100, 2006; and Kamentsky, et al., Bioinformatics, 27:1179, 2011).
Ten thousand HeLa Tet3G NDI1, Luciferase, LbNOX or mitoLbNOX cells were seeded in 200 μl of DMEM (DMEM (US Biological, D9800), 3.7 g/L NaHCO3, 10% dialyzed FBS (Life Technologies, 26400-044)) per well of a black 96-well plate with clear bottom (Corning, 3904). Twenty four hours after seeding, 10 μl of 6 μg/ml doxycycline (300 ng/ml final concentration) or water was added to each well. Twenty four hours after addition of doxycycline, media was exchanged to DMEM (DMEM (US Biological, D9800), 3.7 g/L NaHCO3, 10% dialyzed FBS (Life Technologies, 26400-044))±300 ng/ml doxycycline. […] After 24 hours, media was aspirated and cells were fixed by adding 100 μl of 4% paraformaldehyde in PBS and incubating at room temperature for at least 30 min. Paraformaldehyde solution was aspirated and cells were stained with 200 μl of 1 μg/ml Hoechst 33345. Plates were covered with sealing aluminum foil and stored at 4° C. before counting cells in each well with Molecular Dynamics IMAGEXPRESS® Ultra (see “Nuclei counting using Molecular Devices IMAGEXPRESS® Ultra,” above).

CN(C)CC(=O)Nc1ccc2[nH]c(=O)c3ccccc3c2c1 [PJ34, reference compound]
rescue of piericidin induced proliferation defect by supplementation (HeLa Tet3G cells [1]; 1 μM piericidin): did not rescue

NC(=O)c1ccc[n+]([C@@H]2O[C@H](COP(=O)([O-])O)[C@@H](O)[C@H]2O)c1 [PMN, nicotinamide mononucleotide, reference compound]
rescue of piericidin induced proliferation defect by supplementation (HeLa Tet3G cells [1]; 1 μM piericidin): did not rescue

CC(O)C(=O)O (stereo not drawn) [lactate, reference compound]
rescue of piericidin induced proliferation defect by supplementation (HeLa Tet3G cells [1]; 1 μM piericidin): do not

O=C(O)CC(O)C(=O)O (stereo not drawn) [malate, reference compound]
rescue of piericidin induced proliferation defect by supplementation (HeLa Tet3G cells [1]; 1 μM piericidin): do not

B1: Ndi1: yeast (S. cerevisiae) NADH dehydrogenase Ndi1 protein, positive control (protein, UniProt P32340 27-513, looked up)
Rotenone-insensitive …: STGVENSGAGPTSFKTMKVIDPQHSDKPNVLILGSGWGAISFLKHIDTKKYNVSIISPRSYFLFTPLLPSAPVGTVDEKSIIEPIVNFALKKKGNVTYYEAEATSINPDRNTVTIKSLSAVSQLYQPENHLGLHQAEPAEIKYDYLISAVGAEPNTFGIPGVTDYGHFLKEIPNSLEIRRTFAANLEKANLLPKGDPERRRLLSIVVVGGGPTGVEAAGELQDYVHQDLRKFLPALAEEVQIHLVEALPIVLNMFEKKLSSYAQSHLENTSIKVHLRTAVAKVEEKQLLAKTKHEDGKITEETIPYGTLIWATGNKARPVITDLFKKIPEQNSSKRGLAVNDFLQVKGSNNIFAIGDNAFAGLPPTAQVAHQEAEYLAKNFDKMAQIPNFQKNLSSRKDKIDLLFEENNFKPFKYNDLGALAYLGSERAIATIRSGKRTFYTGGGLMTFYLWRILYLSMILSARSRLKVFFDWIKLAFFKRDFFKGL
rescue of proliferation defect caused by ethidium bromide (HeLa Tet3G cells [1]; 30 ng/ml ethidium bromide, no pyruvate, doxycycline-inducible expression): not | rescue of proliferation defect caused by antimycin (HeLa Tet3G cells [1]; 1 μM antimycin, no pyruvate, doxycycline-inducible expression): not | rescue of proliferation defect caused by piericidin (HeLa Tet3G cells [1]; 1 μM piericidin, no pyruvate, doxycycline-inducible expression): rescued | rescue of proliferation defect caused by chloramphenicol (HeLa Tet3G cells [1]; 10 μg/ml chloramphenicol, no pyruvate, doxycycline-inducible expression): not | effect on decrease in cell number (cell survival) at low glucose concentrations in the presence of piericidin (HeLa Tet3G cells [2]): rescued

Reference: US11866736B2, “Protein prostheses for mitochondrial diseases or conditions” (The General Hospital Corporation, priority 2015, dated 2024)
